This is an account of results in patent US20120178682A1, “GB1 Peptidic Compounds and Methods for Making and Using the Same” (priority 2010, published 2012).

This test has as its target D-VEGF. The experiment in a line: SPR affinity measurements of GB1 peptidic compounds on immobilized D-VEGF. In kind it is binding. To be noted: for Kd / Koff / Kon: target D-VEGF; for effect of point mutation on affinity: notes to Table 5, relative to E01. The procedure:
VEGF binding compounds were expressed. Binding affinities were measured using the […] SPR system. SPR analysis was performed on a ProteOn XPR36 Protein Interaction Array System (BioRad). Chemically synthesized L-VEGF, D-VEGF and VEGF165 (Peprotech) were immobilized in 50 mM Sodium Acetate (pH 5.5) to a non-dilute EDAC/sulfo-NHS activated GLC surface on separate channels using a flow rate of […] for 5 minutes in the vertical direction. Immobilization levels were monitored to ensure immobilization of approximately 500 response units of each protein. The domains were then stabilized with PBS for 30 seconds and 0.85% H3PO4 for 18 seconds each at […]. GB1 variants were diluted in PBS plus 0.05% Tween 20 at a starting concentration of 200 nM. The binders were further diluted with PBST 2-fold in series to produce 5 concentrations of variants. A PBST blank was also included. GB1 variant injection parameters were: […], 60 seconds contact time, and 600 seconds dissociation time, in the horizontal direction. VEGF proteins were regenerated with an injection of 0.85% H3PO4 at a flow rate of […] followed by a PBST wash of 30 seconds at […] flow rate.

The mark [1] stands for this setting: Table 1, E01 point mutants expressed in E. coli.
[2] abbreviates: Table 2, GB1-E01 double mutants.

Changes are numbered by the printed parent chain. Names and notes keep the numbering of the source.

As usually defined, the Kd is the equilibrium constant for the complex coming apart. Read a high Kd as lower affinity.

B1: E01-V31A: E01 point mutant V31A (protein)
chain: MKIEEHHHHHHHHHHGGSTYKLILNGKTLKGETTTEAVDVYDAFDVFFAYAASNFSDFDDWTYDDATKTFTVTEGGSDK
For the setting “Table 1”, B1 gave a dissociation constant (Kd) of 7.8 nM and a Koff of 0.00194 s⁻¹. Under setting [1], this molecule yielded a Kon of 250000 M⁻¹ s⁻¹.

B2: E01-D41V: E01 point mutant D41V (protein)
chain: B1 chain with A49V, D59V
Where the note is “Table 1”, B2 displayed a Kd of 67.5 nM and a Koff of 0.0333 s⁻¹. In addition, the Kon under setting [1] is 493000 M⁻¹ s⁻¹.

B3: E01-V22L: E01 point mutant V22L, His-tagged, expressed in E. coli (protein)
chain: B1 chain with V40L, A49V
In the case of B3, the “effect of point mutation on affinity” value is “^2 V22L point mutant increased affinity;”. For the setting “Table 1”, the Kd came out at 5.8 nM and the Koff came out at 0.00239 s⁻¹. This molecule showed a Kon under setting [1] of 411000 M⁻¹ s⁻¹.

B4: E01-S35G: E01 point mutant S35G (protein)
chain: B1 chain with A49V, S53G
Under “Table 1”, B4 returned a Kd of 8.79 nM and a Koff of 0.00348 s⁻¹. Also, the Kon under setting [1] was found to be 396000 M⁻¹ s⁻¹.

B5: E01-D39F/V31A: E01 double mutant D39F/V31A (protein)
chain: B1 chain with D57F
Under setting [2], B5 showed a Kd of 2.99 nM, a Koff of 0.00167 s⁻¹ and a Kon of 558000 M⁻¹ s⁻¹.

B6: E01-D39F/V22L: E01 double mutant D39F/V22L (protein)
chain: B1 chain with V40L, A49V, D57F
Consider B6, for which, under setting [2], the dissociation constant Kd was found to be 1.14 nM, the Koff was determined as 0.00082 s⁻¹ and the Kon is 719000 M⁻¹ s⁻¹.

B7: E01-D39F/A34S: E01 double mutant D39F/A34S (protein)
chain: B1 chain with A49V, A52S, D57F
Under setting [2], B7 showed an equilibrium dissociation constant (Kd) of 4.49 nM, a Koff of 0.00174 s⁻¹ and a Kon of 387000 M⁻¹ s⁻¹.

B8: E01-D27E: E01 point mutant D27E (protein)
chain: B1 chain with D45E, A49V
For the setting “Table 1”, B8 gave a Kd of 9.6 nM and a Koff of 0.00333 s⁻¹. Under setting [1], the Kon came out at 347000 M⁻¹ s⁻¹.

B9: E01-D39F/S35G: E01 double mutant D39F/S35G (protein)
chain: B1 chain with A49V, S53G, D57F
Under setting [2], B9 displayed a Kd of 5.4 nM, a Koff of 0.00193 s⁻¹ and a Kon of 358000 M⁻¹ s⁻¹.

B10: E01-S35R: E01 point mutant S35R (protein)
chain: B1 chain with A49V, S53R
Under “Table 1”, B10 displayed a Kd of 9.3 nM and a Koff of 0.00258 s⁻¹. Under setting [1], this molecule came in with a Kon of 279000 M⁻¹ s⁻¹.

B11: E01-S38K: E01 point mutant S38K (protein)
chain: B1 chain with A49V, S56K
For the setting “Table 1”, B11 yielded a Kd of 13.7 nM and a Koff of 0.0028 s⁻¹. In addition, under setting [1], the Kon was found to be 204000 M⁻¹ s⁻¹.

B12: E01-D39F/S38G: E01 double mutant D39F/S38G (protein)
chain: B1 chain with A49V, S56G, D57F
Under setting [2], B12 showed an equilibrium dissociation constant (Kd) of 2.83 nM, a Koff of 0.00131 s⁻¹ and a Kon of 463000 M⁻¹ s⁻¹.

B13: E01-D39F: E01 point mutant D39F; scaffold for double mutants (protein)
chain: B1 chain with A49V, D57F
Consider B13, for which the “effect of point mutation on affinity” value is listed as “^3 D39F point mutant increased affinity”. Moreover, where the note is “Table 1”, the dissociation constant Kd came to 4.23 nM and the Koff was 0.00213 s⁻¹. Also, the Kon under setting [1] was 504000 M⁻¹ s⁻¹. Under setting [2], this molecule returned a dissociation constant Kd of 3.48 nM, a Koff of 0.00132 s⁻¹ and a Kon of 380000 M⁻¹ s⁻¹.

B14: E01-D39F/D27E: E01 double mutant D39F/D27E (protein)
chain: B1 chain with D45E, A49V, D57F
Under setting [2], B14 yielded a Kd of 3.1 nM, a Koff of 0.00158 s⁻¹ and a Kon of 511000 M⁻¹ s⁻¹.

B15: E01-D39F/S35E: E01 double mutant D39F/S35E (protein)
chain: B1 chain with A49V, S53E, D57F
Under setting [2], B15 gave a Kd of 4.52 nM, a Koff of 0.00205 s⁻¹ and a Kon of 454000 M⁻¹ s⁻¹.

B16: E01-F40I: E01 point mutant F40I (protein)
chain: B1 chain with A49V, F58I
Under “Table 1”, B16 displayed a Kd of 11.1 nM and a Koff of 0.00441 s⁻¹. Under setting [1], this molecule showed a Kon of 398000 M⁻¹ s⁻¹.

B17: E01-D39F/F40I: E01 double mutant D39F/F40I (protein)
chain: B1 chain with A49V, D57F, F58I
For the molecule B17, under setting [2], binding was put at a Kd of 2.29 nM, the Koff is 0.00138 s⁻¹ and the Kon was determined as 602000 M⁻¹ s⁻¹.

B18: E01-S38G: E01 point mutant S38G (protein)
chain: B1 chain with A49V, S56G
Where the note is “Table 1”, B18 gave a Kd of 9 nM and a Koff of 0.00387 s⁻¹. Besides, under setting [1], the Kon worked out at 428000 M⁻¹ s⁻¹.

B19: E01-D24G: E01 point mutant D24G (protein)
chain: B1 chain with D42G, A49V
For B19, where the note is “Table 1”, the Kd was found to be 14.9 nM and the Koff was found to be 0.00247 s⁻¹. The Kon under setting [1] was 166000 M⁻¹ s⁻¹.

B20: E01-A34S: E01 point mutant A34S (protein)
chain: B1 chain with A49V, A52S
For the setting “Table 1”, B20 registered a Kd of 7.8 nM and a Koff of 0.00278 s⁻¹. Moreover, the Kon under setting [1] was 356000 M⁻¹ s⁻¹.

B21: E01-S35E: E01 point mutant S35E (protein)
chain: B1 chain with A49V, S53E
For the setting “Table 1”, B21 displayed an equilibrium dissociation constant (Kd) of 7.47 nM and a Koff of 0.00304 s⁻¹. Further, the Kon under setting [1] is 407000 M⁻¹ s⁻¹.

B22: E01-D39F/S35R: E01 double mutant D39F/S35R (protein)
chain: B1 chain with A49V, S53R, D57F
Take B22: under setting [2], the Kd came out at 5.35 nM, the Koff was 0.00183 s⁻¹ and the Kon was 341000 M⁻¹ s⁻¹.
